{"source": "IntAct's records for PubMed 16763556", "parents": {"B1": {"name": "DNA polymerase iota (Homo sapiens), Q9UNA4 (parent)", "chain": "MEKLGVEPEEEGGGDDDEEDAEAWAMELADVGAAASSQGVHDQVLPTPNASSRVIVHVDLDCFYAQVEMISNPELKDKPLGVQQKYLVVTCNYEARKLGVKKLMNVRDAKEKCPQLVLVNGEDLTRYREMSYKVTELLEEFSPVVERLGFDENFVDLTEMVEKRLQQLQSDELSAVTVSGHVYNNQSINLLDVLHIRLLVGSQIAAEMREAMYNQLGLTGCAGVASNKLLAKLVSGVFKPNQQTVLLPESCQHLIHSLNHIKEIPGIGYKTAKCLEALGINSVRDLQTFSPKILEKELGISVAQRIQKLSFGEDNSPVILSGPPQSFSEEDSFKKCSSEVEAKNKIEELLASLLNRVCQDGRKPHTVRLIIRRYSSEKHYGRESRQCPIPSHVIQKLGTGNYDVMTPMVDILMKLFRNMVNVKMPFHLTLLSVCFCNLKALNTAKKGLIDYYLMPSLSTTSRSGKHSFKMKDTHMEDFPKDKETNRDFLPSGRIESTRTRESPLDTTNFSKEKDINEFPLCSLPEGVDQEVFKQLPVDIQEEILSGKSREKFQGKGSVSCPLHASRGVLSFFSKKQMQDIPINPRDHLSSSKQVSSVSPCEPGTSGFNSSSSSYMSSQKDYSYYLDNRLKDERISQGPKEPQGFHFTNSNPAVSAFHSFPNLQSEQLFSRNHTTDSHKQTVATDSHEGLTENREPDSVDEKITFPSDIDPQVFYELPEAVQKELLAEWKRAGSDFHIGHK"}, "B2": {"name": "DNA polymerase eta (Homo sapiens), Q9Y253 (parent)", "chain": "MATGQDRVVALVDMDCFFVQVEQRQNPHLRNKPCAVVQYKSWKGGGIIAVSYEARAFGVTRSMWADDAKKLCPDLLLAQVRESRGKANLTKYREASVEVMEIMSRFAVIERASIDEAYVDLTSAVQERLQKLQGQPISADLLPSTYIEGLPQGPTTAEETVQKEGMRKQGLFQWLDSLQIDNLTSPDLQLTVGAVIVEEMRAAIERETGFQCSAGISHNKVLAKLACGLNKPNRQTLVSHGSVPQLFSQMPIRKIRSLGGKLGASVIEILGIEYMGELTQFTESQLQSHFGEKNGSWLYAMCRGIEHDPVKPRQLPKTIGCSKNFPGKTALATREQVQWWLLQLAQELEERLTKDRNDNDRVATQLVVSIRVQGDKRLSSLRRCCALTRYDAHKMSHDAFTVIKNCNTSGIQTEWSPPLTMLFLCATKFSASAPSSSTDITSFLSSDPSSLPKVPVTSSEAKTQGSGPAVTATKKATTSLESFFQKAAERQKVKEASLSSLTAPTQAPMSNSPSKPSLPFQTSQSTGTEPFFKQKSLLLKQKQLNNSSVSSPQQNPWSNCKALPNSLPTEYPGCVPVCEGVSKLEESSKATPAEMDLAHNSQSMHASSASKSVLEVTQKATPNPSLLAAEDQVPCEKCGSLVPVWDMPEHMDYHFALELQKSFLQPHSSNPQVVSAVSHQGKRNPKSPLACTNKRPRPEGMQTLESFFKPLTH"}}, "data": [{"variants_of": "B1", "conditions": "with ubc_human UBC", "values": [{"variant": "P717R", "effect of a mutation on the interaction": "decreasing interaction strength"}]}, {"variants_of": "B2", "conditions": "with ubc_human UBC", "values": [{"variant": "H654A", "effect of a mutation on the interaction": "disrupting interaction"}]}]}
